Data published in patent publication US20220220200A1 (NANJING IASO BIOTECHNOLOGY, published 2022).

T1: Biotinylated Human BCMA/TNFRSF17 Protein, Fc Tag, Avi Tag (BCMA-hFc-Bio) (human, UniProt Q02223 1-54, biotinylated (Avitag))
T1 construct: Bought protein; also called control antigen BCMA; unrelated antigen BCMA; not shown: Fc tag (hFc) and Avi tag
T1 sequence (looked up): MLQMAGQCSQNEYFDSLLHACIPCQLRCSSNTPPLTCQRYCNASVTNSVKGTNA

B1: #62 scFv phage antibody clone (scFv)
scFv: QSVVTQPPSVSGAPGQRVTISCTGSSSNIGAGYDVHWYQQLPGTAPKLLIYENTNRPSGVPDRFSGSKSGTSASLAITGLQAEDEADYYCQSYDSSLSGWRVFGGGTKLTVLGSRGGGGSGGGGSGGGGSLEMAEVQLVQSGAEVKKPGESLKISCKGSGYSFTNSWIGWVRQMPGKGLEWMGLIYPDDSDTRYSPSFQGQVTISADSAINTAYLQWSSLKASDTAMYYCARQSTYIYGGYYDTWGQGTLVTVSS
notes: The phage coat fusion is not described; also called clone #62; phage #62
B2: #78 scFv phage antibody clone (scFv)
scFv: QAVLTQPPSVSEAPRQRVTISCSGSSSNIGNNAVSWYQQLPGKAPKLLIYYDDLLPSGVSDRFSGSKSGTSASLAISGLQSEDEADYYCAAWDDSLNGWVFGGGTKVTVLGSRGGGGSGGGGSGGGGSLEEVQLVQSGAEVKKPGESLKISCKGSGYSFTSYWIGWVRQMPGKGLEWMGIIYPGDSDTRYSPSFQGQVTISADKSISTAYLQWSSLKASDTAMYYCARLSYSWSSWYWDFWGQGTLVTVSS
notes: The phage coat fusion is not described; also called clone #78; phage #78

Key:
Streptavidin = molecular target: T2, Streptavidin (UniProt P22629 37-163, limits assumed); assay: phage ELISA, streptavidin-coated plate
T2 construct: Plate coating in the phage ELISA, tested as a control antigen; also called Strepavidin
T2 sequence (P22629 37-163 limits assumed): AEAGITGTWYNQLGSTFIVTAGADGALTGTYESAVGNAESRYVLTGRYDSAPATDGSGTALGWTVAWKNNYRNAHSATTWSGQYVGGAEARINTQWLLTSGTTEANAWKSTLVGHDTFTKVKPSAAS
Description: (§1) In ELISA preliminary screening, the streptavidin-biotin binding allowed the biotinylated target protein (CD19-hFc-Bio) and the control protein (BCMA-hFc-Bio) to be closer to native antigen conformation in the reaction solution. Clones that only bound to CD19-hFc-Bio but not to BCMA-hFc-Bio and streptavidin were considered specific. The FACS preliminary screening was performed using a cell line Raji with high expression of CD19 and Raji-CD19ko with knockout of CD19 molecules, and clones that only bind to Raji cells but not to Raji-CD19ko cells were considered specific. Through the two preliminary screenings based on ELISA and FACS respectively, we could obtain candidate antibodies that can not only bind to the recombinantly expressed CD19 protein but also recognize the native CD19 molecules on the cell surface for further screening.
(§2) Monoclonal antibodies were randomly selected from the enriched phage antibody pool, packaged into phages, and the binding of the monoclonal phage to CD19-hFc-Bio protein and BCMA-hFc-Bio protein was detected by phage ELISA to find CD19-specific phage antibody clones. Control 1 is FMC-63 ([…] anti-human CD19 phage antibody clone); and control 2 is non-CD19-bound scFv phage antibody clone. […]

[1] = molecular target: T1, Biotinylated Human BCMA/TNFRSF17 …; assay: phage ELISA, biotinylated antigen on streptavidin plate
Description: as §1, §2

Binder	binding result (Streptavidin)	binding result [1]
B1	no binding	no binding
B2	no binding	no binding
